Assay results taken from patent publication US20240190962A1 (IMMUNOWAKE, published 2024).
Residue numbers refer to the chain shown, from its start. Names may count otherwise.

T1: human IL-2 receptor (IL-2Rα, IL-2Rβ, IL-2Rγ) (human, UniProt P01589 22-272; P14784 27-551; P31785 23-369)
T1 sequence (looked up) 1: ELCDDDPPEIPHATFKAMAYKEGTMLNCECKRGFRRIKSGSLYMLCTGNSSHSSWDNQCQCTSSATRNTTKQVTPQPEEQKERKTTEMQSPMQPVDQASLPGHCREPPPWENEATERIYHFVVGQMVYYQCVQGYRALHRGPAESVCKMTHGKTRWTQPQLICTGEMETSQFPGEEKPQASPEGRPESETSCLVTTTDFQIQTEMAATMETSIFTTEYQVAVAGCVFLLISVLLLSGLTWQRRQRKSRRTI
T1 sequence (looked up) 2: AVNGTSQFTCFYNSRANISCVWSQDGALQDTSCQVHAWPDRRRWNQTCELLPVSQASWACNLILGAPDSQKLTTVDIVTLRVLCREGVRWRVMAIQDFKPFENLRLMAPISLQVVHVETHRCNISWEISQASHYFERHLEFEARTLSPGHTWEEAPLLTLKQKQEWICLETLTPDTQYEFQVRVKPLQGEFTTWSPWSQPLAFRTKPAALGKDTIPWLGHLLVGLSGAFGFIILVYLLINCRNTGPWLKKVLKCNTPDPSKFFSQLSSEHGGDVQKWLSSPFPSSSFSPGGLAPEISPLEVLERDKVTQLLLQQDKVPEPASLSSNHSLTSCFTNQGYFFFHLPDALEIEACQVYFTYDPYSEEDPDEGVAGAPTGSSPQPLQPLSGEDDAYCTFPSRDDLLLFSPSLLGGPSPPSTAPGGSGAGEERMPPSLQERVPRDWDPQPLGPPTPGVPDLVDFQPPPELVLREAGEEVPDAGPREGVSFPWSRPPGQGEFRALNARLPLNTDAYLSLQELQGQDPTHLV
T1 sequence (looked up) 3: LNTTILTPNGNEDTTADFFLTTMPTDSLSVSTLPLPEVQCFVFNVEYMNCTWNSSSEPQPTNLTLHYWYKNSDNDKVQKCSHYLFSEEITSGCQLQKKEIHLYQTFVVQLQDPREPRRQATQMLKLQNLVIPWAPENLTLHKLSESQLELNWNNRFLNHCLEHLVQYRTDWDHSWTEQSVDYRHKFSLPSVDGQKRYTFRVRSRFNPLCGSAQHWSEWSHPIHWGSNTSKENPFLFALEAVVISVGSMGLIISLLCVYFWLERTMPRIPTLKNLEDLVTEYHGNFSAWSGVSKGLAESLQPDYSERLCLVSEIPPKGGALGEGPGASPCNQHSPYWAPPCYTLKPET

B1: PD-L1(mut2)-Fc (Fc fusion)
chain 1: FTVTVPKDLYVVEYGSNMTIECKFPVEKQLDLAALQVYWMMEDKNIIQFVHGEEDLKVQHSSYRQRARLLKDQLSLGNAALQITDVKLQDAGVYTCLIAYKGADYKRITVKVNAPYNKINQRILVVDPVTSEHELTCQAEGYPKAEVIWTSSDHQVLSGKTTTTNSKREEKLFNVTSTLRINTTTNEIFYCTFRRLDPEENHTAELVIPELPLAHPPNERGGGGSGGGDKTHTCPPCPAPEDEGGPSVFLFPPKPKDTLMISRTPEVTCVVVDVSHEDPEVKFNWYVDGVEVHNAKTKPREEQYNSTYRVVSVLTVLHQDWLNGKEYKCKVSNKALPAPIEKTISKAKGQPREPQVYVYPPSREEMTKNQVSLTCLVKGFYPSDIAVEWESNGQPENNYKTTPPVLDEDGSFALVSKLTVDKSRWQQGNVFSCSVMHEALHNHYTQKSLSLSPGK
chain 2: B1 chain 1 with D242K, E243K, Y359L, T374L, N398R, K400M, T402W, E408S, A413F, V415Y
B2: IL-2(R38D/K43E/E61R)/PD-L1(mut2)-Fc (Fc fusion)
chain 1: B1 chain 1
chain 2: FTVTVPKDLYVVEYGSNMTIECKFPVEKQLDLAALQVYWMMEDKNIIQFVHGEEDLKVQHSSYRQRARLLKDQLSLGNAALQITDVKLQDAGVYTCLIAYKGADYKRITVKVNAPYNKINQRILVVDPVTSEHELTCQAEGYPKAEVIWTSSDHQVLSGKTTTTNSKREEKLFNVTSTLRINTTTNEIFYCTFRRLDPEENHTAELVIPELPLAHPPNERGGGSGAPTSSSTKKTQLQLEHLLLDLQMILNGINNYKNPKLTDMLTFEFYMPKKATELKHLQCLERELKPLEEVLNLAQSKNFHLRPRDLISNINVIVLELKGSETTFMCEYADETATIVEFLNRWITFCQSIISTLTGGGGSGGGDKTHTCPPCPAPEKKGGPSVFLFPPKPKDTLMISRTPEVTCVVVDVSHEDPEVKFNWYVDGVEVHNAKTKPREEQYNSTYRVVSVLTVLHQDWLNGKEYKCKVSNKALPAPIEKTISKAKGQPREPQVYVLPPSREEMTKNQVSLLCLVKGFYPSDIAVEWESNGQPENRYMTWPPVLDSDGSFFLYSKLTVDKSRWQQGNVFSCSVMHEALHNHYTQKSLSLSPGK
B3: IL-2(L18R/Q22E/R38D/K43E/E61R/Q126T/S130R)/PD-L1(mut2)-Fc (Fc fusion)
chain 1: B1 chain 1
chain 2: B2 chain 2 with L243R, Q247E, Q351T, S355R
B4: IL-2(L18R/Q22E/R38D/K43E/E61R)/PD-L1(mut2)-Fc (Fc fusion)
chain 1: B1 chain 1
chain 2: B2 chain 2 with L243R, Q247E
B5: IL-2(L18R/Q22E/R38D/K43E/E61R/Q126T)/PD-L1(mut2)-Fc (Fc fusion)
chain 1: B1 chain 1
chain 2: B2 chain 2 with L243R, Q247E, Q351T
B6: IL-2(R38D/K43E/E61R/Q126T)/PD-L1(mut2)-Fc (Fc fusion)
chain 1: B1 chain 1
chain 2: B2 chain 2 with Q351T
B7: IL-12(E59A/F60A)/anti-PD-1(D100N) (other)
light: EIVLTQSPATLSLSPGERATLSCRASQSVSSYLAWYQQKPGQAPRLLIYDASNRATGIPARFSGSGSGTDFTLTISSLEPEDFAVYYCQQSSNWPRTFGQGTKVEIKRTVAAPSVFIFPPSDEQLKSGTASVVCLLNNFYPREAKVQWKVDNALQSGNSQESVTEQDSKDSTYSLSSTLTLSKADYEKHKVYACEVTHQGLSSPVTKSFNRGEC
heavy 1: QVQLVESGGGVVQPGRSLRLDCKASGITFSNSGMHWVRQAPGKGLEWVAVIWYDGSKRYYADSVKGRFTISRDNSKNTLFLQMNSLRAEDTAVYYCATNNDYWGQGTLVTVSSASTKGPSVFPLAPSSKSTSGGTAALGCLVKDYFPEPVTVSWNSGALTSGVHTFPAVLQSSGLYSLSSVVTVPSSSLGTQTYICNVNHKPSNTKVDKKVEPKSCDKTHTCPPCPAPEKKGGPSVFLFPPKPKDTLMISRTPEVTCVVVDVSHEDPEVKFNWYVDGVEVHNAKTKPREEQYNSTYRVVSVLTVLHQDWLNGKEYKCKVSNKALPAPIEKTISKAKGQPREPQVYVLPPSREEMTKNQVSLLCLVKGFYPSDIAVEWESNGQPENRYMTWPPVLDSDGSFFLYSKLTVDKSRWQQGNVFSCSVMHEALHNHYTQKSLSLSPGK
heavy 2: QVQLVESGGGVVQPGRSLRLDCKASGITFSNSGMHWVRQAPGKGLEWVAVIWYDGSKRYYADSVKGRFTISRDNSKNTLFLQMNSLRAEDTAVYYCATNNDYWGQGTLVTVSSASTKGPSVFPLAPSSKSTSGGTAALGCLVKDYFPEPVTVSWNSGALTSGVHTFPAVLQSSGLYSLSSVVTVPSSSLGTQTYICNVNHKPSNTKVDKKVEPKSCDKPGSGIWELKKDVYVVELDWYPDAPGEMVVLTCDTPEEDGITWTLDQSSEVLGSGKTLTIQVKAAGDAGQYTCHKGGEVLSHSLLLLHKKEDGIWSTDILKDQKEPKNKTFLRCEAKNYSGRFTCWWLTTISTDLTFSVKSSRGSSDPQGVTCGAATLSAERVRGDNKEYEYSVECQEDSACPAAEESLPIEVMVDAVHKLKYENYTSSFFIRDIIKPDPPKNLQLKPLKNSRQVEVSWEYPDTWSTPHSYFSLTFCVQVQGKSKREKKDRVFTDKTSATVICRKNASISVRAQDRYYSSSWSEWASVPCSGGGGSGGGGSGGGGSGGGGSGRNLPVATPDPGMFPCLHHSQNLLRAVSNMLQKARQTLEFYPCTSEEIDHEDITKDKTSTVEACLPLELTKNESCLNSRETSFITNGSCLASRKTSFMMALCLSSIYEDLKMYQVEFKTMNAKLLMDPKRQIFLDQNMLAVIDELMQALNFNSETVPQKSSLEEPDFYKTKIKLCILLHAFRIRAVTIDRVMSYLNASDKTHTCPPCPAPEDEGGPSVFLFPPKPKDTLMISRTPEVTCVVVDVSHEDPEVKFNWYVDGVEVHNAKTKPREEQYNSTYRVVSVLTVLHQDWLNGKEYKCKVSNKALPAPIEKTISKAKGQPREPQVYVYPPSREEMTKNQVSLTCLVKGFYPSDIAVEWESNGQPENNYKTTPPVLDEDGSFALVSKLTVDKSRWQQGNVFSCSVMHEALHNHYTQKSLSLSPGK
B8: IL-12(E59A/F60A)/anti-PD-1(D100G) (other)
light: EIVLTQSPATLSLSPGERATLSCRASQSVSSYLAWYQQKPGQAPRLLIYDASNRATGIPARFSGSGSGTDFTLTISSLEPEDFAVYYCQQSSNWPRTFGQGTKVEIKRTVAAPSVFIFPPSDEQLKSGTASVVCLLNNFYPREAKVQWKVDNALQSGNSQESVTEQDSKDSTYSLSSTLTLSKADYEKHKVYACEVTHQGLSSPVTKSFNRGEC
heavy 1: B7 heavy 1 with N100G
heavy 2: B7 heavy 2 with N100G
B9: IL-12(E59A/F60A)/anti-PD-1(D100R) (other)
light: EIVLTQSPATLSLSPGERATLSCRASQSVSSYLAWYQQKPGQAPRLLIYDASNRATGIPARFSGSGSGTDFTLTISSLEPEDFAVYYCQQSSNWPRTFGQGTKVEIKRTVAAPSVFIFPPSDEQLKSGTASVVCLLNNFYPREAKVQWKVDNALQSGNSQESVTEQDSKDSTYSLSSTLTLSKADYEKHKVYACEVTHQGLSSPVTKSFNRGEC
heavy 1: B7 heavy 1 with N100R
heavy 2: B7 heavy 2 with N100R

The binders below were run against T1, human IL-2 receptor (IL-2Rα, IL-2Rβ, …) (assay: cell-based or functional assay).

| IL-2 biological activity, HEK-IL-2 | IL-2 biological activity, HEK-IL-2-PD-1 | Binder |
| --- | --- | --- |
| < 0.1% | < 0.1% | B1 |
| 16% | 76% | B2 |
| < 0.1% | < 0.1% | B3 |
| 4% | 35% | B4 |
| < 0.1% | 5% | B5 |
| 2% | 20% | B6 |

What follows are binders tested against human IL-12 receptor complex (IL-12Rβ1, IL-12Rβ2) (human, UniProt P42701 24-662; Q99665 24-862) (assay: cell-based or functional assay).
Sequence of human IL-12 receptor complex (IL-12Rβ1, IL-12Rβ2) (Q99665 24-862, chain 2 of 2, other chains not shown): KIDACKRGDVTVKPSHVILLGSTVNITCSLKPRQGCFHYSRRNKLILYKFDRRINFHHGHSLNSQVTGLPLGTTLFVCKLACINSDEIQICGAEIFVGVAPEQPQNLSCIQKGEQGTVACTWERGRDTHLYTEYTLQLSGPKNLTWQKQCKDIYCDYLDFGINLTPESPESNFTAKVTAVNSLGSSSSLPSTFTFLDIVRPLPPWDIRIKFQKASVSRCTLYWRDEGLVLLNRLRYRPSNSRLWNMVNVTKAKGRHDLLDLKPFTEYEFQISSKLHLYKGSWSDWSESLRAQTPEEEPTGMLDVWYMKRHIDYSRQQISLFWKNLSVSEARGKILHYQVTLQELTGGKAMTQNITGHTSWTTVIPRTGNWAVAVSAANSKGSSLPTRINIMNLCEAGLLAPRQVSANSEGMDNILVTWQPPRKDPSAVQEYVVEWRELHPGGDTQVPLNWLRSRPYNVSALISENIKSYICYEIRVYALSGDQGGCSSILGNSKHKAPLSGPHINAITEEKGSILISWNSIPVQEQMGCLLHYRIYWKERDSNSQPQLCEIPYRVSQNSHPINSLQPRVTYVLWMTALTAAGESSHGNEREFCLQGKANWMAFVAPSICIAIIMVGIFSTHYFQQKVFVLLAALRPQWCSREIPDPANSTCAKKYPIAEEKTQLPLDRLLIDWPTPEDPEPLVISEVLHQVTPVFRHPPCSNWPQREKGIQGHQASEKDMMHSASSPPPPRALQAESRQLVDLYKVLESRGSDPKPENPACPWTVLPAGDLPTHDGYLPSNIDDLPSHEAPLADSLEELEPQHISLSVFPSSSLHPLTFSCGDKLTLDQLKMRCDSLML

| IL-12 biological activity, HEK-IL-12 | IL-12 biological activity, HEK-IL-12-PD-1 (high) | IL-12 biological activity, HEK-IL-12-PD-1 (low) | PBMC (IFN-γ ng/ml) | Binder |
| --- | --- | --- | --- | --- |
| < 0.2% | 38% | 33% | 820 ng/mL | B7 |
| < 0.2% | 33% | 17% | 120 ng/mL | B8 |
| < 0.2% | 10% | 3% | 69 ng/mL | B9 |
